Experiment: soluble on expression in E. coli; label from the status in PepcDB or PDB records

Q: Which “soluble on expression in E. coli” value does the source give for “GPGSMYKLPIEAQFNLIEEEFAAIEASTMNPRLYNFTTSNANPTKNRYINVLANEETIFPPTSLTSAPPTTGGSRLSTSGSPPSMASAPSPMKSLTGRAQKIWGVAGQRLFGTRRGGTLPRDVEGNEKFTTGCVTKKYPQWYINANVVDTSVEPVFVASQAPVQECIDDFLAVIYSCEVTLVLMLTELEEAGFVKADRYWPEDSAPADRIESFGSMCVYKDEQDPYTCDAAHELVRRSFYIRPSAASQARAHKIVMYQYVGWPDRGVPDSTESFEELLKIIQGYVMASPAPRVPAAGPESAAHSSIATNSGGDGSTSNTGSGEGSGKLTPPVFVHCSAGIGRTGTLIGAYTAVKLTEAGLLTNTSIRRIVTDMRKARFGMVQRVEQYMFLYMIVLQHMGVDARKFSARMQPRADLYNMRWMEARQKALLGARAAKR” here?
A: not soluble

Q: For “GPGSMYSYNNIIEKNEPCKKDVIENLQLSLSPTGAVRQFRVDERVDVVVVEGFLSNDECDQLIAACEKVGYTFWRQKDPNAEGEEAGCCGEAEARAFRVVDTIEANFPTLSQVLSSRIEKVVKLDPKTFSPSMEGAEELFARDLEGTWVPQQLAQNLLFARYGAGGHFSPHIDGSTIVDINTRSLYTLLIYLNDCEAGGETVLFDGEQAEVLKRDAESGKYIGRRENRIGAVKPTKGTAAFFYYDVLHEGSPVGEGHSKYIIRGDFLYRRNPPILTAENDMKAFELYEKARVAESNGDVFAACEMFQRVRKLSKGVAELYQL”, which “soluble on expression in E. coli” value is on record?
A: soluble

Q: With “GPGSVPPKKPTEVPKLVRINTNEKGITNVQLARAPVNSMSLELFQELNQWMLWLGCNEETKAVIISSAIPTVFSAGLEFSEVHNPKPDRIAVFWQSFQEMWRILDTFPKPIIAAITGNSPAAGCIIAMGCDYRVMARGPKGNTNNNRLYRIGLNETKLGLVPPPWTVSAYAYLLGSRQAEEMLQLGETPVADDARNLGLIDEVAADEERAIEVAYQQAERFLSVPQEARRVSRDMARCEYLRLLATEDDRNYDTEFFTQYMLRPEVQKNLESYLERLKSRSRK” as the sequence, how does the “soluble on expression in E. coli” value read?
A: not soluble

Q: Which “soluble on expression in E. coli” value does the source give for “GPGSWIVSRGLNYSDPMNSVVARWVQHSRVRRLTTPISCFGLFIFTATCMQLPYDFRLLREASAGIDRQTALLKKSMDERYLAYREGKIAKEQLEAKEAEAFAKSMKVQ” here?
A: soluble

Q: With “GPLGSAGSSWQCDTCLLQNKVTDNKCIACQAAKLPLKETAKQTGIGTPSKSDKPASTSGTGFGDKFKPAIGTWDCDTCLVQNKPEAVKCVACETPKPG” as the sequence, how does the “soluble on expression in E. coli” value read?
A: soluble

Q: For “GPLGSATITQDTPINQIFTDTALAEKMKTVLGKTNVTDTVSQTDLDQVTTLQADRLGIKSIDGVEYLNNLTQINFSNNQLTDITPLKNLTKLVDILMNNNQIADITPLANLTNLTGLTLFNNQITDIDPLKNLTNLNRLELSSNTISDISALSGLTSLQQLSFGNQVTDLKPLANLTTLERLDISSNKVSDISVLAKLTNLESLIATNNQISDITPLGILTNLDELSLNGNQLKDIGTLASLTNLTDLDLANNQISNLAPLSGLTKLTELKLGANQISNISPLAGLTALTNLELNENQLEDISPISNLKNLTYLTLYFNNISDISPVSSLTKLQRLFFYNNKVSDVSSLANLTNINWLSAGHNQISDLTPLANLTRITQLGLNDQAWTNAPVNYKANVSIPNTVKNVTGALIAPATISDGGSYTEPDITWNLPSYTNEVSYTFSQPVTIGKGTTTFSGTVTQPLKA”, which “soluble on expression in E. coli” value is on record?
A: soluble

Q: With “GPLGSMATVPVYCVCRLPYDVTRFMIECDACKDWFHGSCVGVEEEEAPDIDIYHCPNCEKTHGKSTLKKKRTWHK” as the sequence, how does the “soluble on expression in E. coli” value read?
A: soluble

Q: Which “soluble on expression in E. coli” value does the source give for “GPLGSMPYSDAKAMLDEVAKIRELGVQRVTRIENLENAKKLWDNANSMLEKGNISGYLKAANELHKFMKEKNLKEDDLRPELSDKTISPKGYAILQSLWGAASDYSRAAATLTESTVEPGLVSAVNKMSAFFMDCKLSPNERATPDPDFKVGKSKILVGIMQFIKDVADPTSKIWMHNTKALMNHKIAAIQKLERSNNVNDETLESVLSSKGENLSEYLSYKYATKDEGREHRYTASTENFKNVKEKYQQMRGDALKTEILADFKDKLAEATDEQSLKQIVAELKSKDEYRILAKGQGLTTQLLGLKTSSVSSFEKMVEETRESIKSQERQTIKIK” here?
A: soluble

Q: With “GPMNQLDQLGTRINLICNVFDKWIGQQDLNYNLFAVLYTLATEGSRTQKHIGEKWSLPKQTVSGVCKTLAGQGLIEWQEGEQDRRKRLLSLTETGKAYAAPLTESAQEFSDKVFATFGDKRTTRLFADLDALAEVMEKTISENKK” as the sequence, how does the “soluble on expression in E. coli” value read?
A: soluble

Q: For “GPRRLSIEGNIAVGKSTFVKLLTKTYPEWHVATEPVATWQNIQAAGNQKACTAQSLGNLLDMMYREPARWSYTFQTFSFLSRLKVQLEPFPEKLLQARKPVQIFERSVYSDRYIFAKNLFENGSLSDIEWHIYQDWHSFLLWEFASRITLHGFIYLQASPQVCLKRLYQRAREEEKGIELAYLEQLHGQHEAWLIHKTTKLHFEALMNIPVLVLDVNDDFSEEVTKQEDLMREVNTFVKNL”, which “soluble on expression in E. coli” value is on record?
A: soluble

Q: For “GPTTPVPVSGSLEVKVNDWGSGAEYDVTLNLDGQYDWTVKVKLAPGATVGSFWSANKQEGNGYVIFTPVSWNKGPTATFGFIVNGPQGDKVEEITLEINGQVI”, which “soluble on expression in E. coli” value is on record?
A: soluble

Q: For “GPVGYGAATTGGGNKVPVNVATFEAMQSAIDSYSGSGGLVLNYTGKFDFGTIKDVCAQWKLPAKTVQIKNKSDVTIKGANGSAANFGIRVVGNAHNVIIQNMTIGLLQGGEDADSISLEGNSSGEPSKIWVDHNTVFASLTKCSGAGDASFDGGIDMKKGVHHVTVSYNYVYNYQKVALNGYSDSDTKNSAARTTYHHNRFENVESRVPLQRFGLSHIYNNYFNNVTTSGINVRMGGIAKIESNYFENIKNPVTSRDSSEIGYWDLINNYVGSGITWGTPDGSKPYANATNWISTKVFPESLGYIYTVTPAAQVKAKVIATAGAGKNLAE”, which “soluble on expression in E. coli” value is on record?
A: soluble

Q: With “GQGVYTYEDGGVLQGTYVDGELNGPAQEYDTDGRLIFKGQYKDNIRHGVCWIYYPDGGSLVGEVNEDGEMTGEKIAYVYPDERTALYGKFIDGEMIEGKLATLMSTEEGRPHFELMPGNSVYHFDKSTSSCISTNALLPDPYESERVYVAESLISSAGEGLFSKVAVGPNTVMSFYNGVRITHQEVDSRDWALNGNTLSLDEETVIDVPEPYNHVSKYCASLGHKANHSFTPNCIYDMFVHPRFGPIKCIRTLRAVEADEELTVAYGYDHSPPGKSGPEAPEWYQVELKAFQATQQK” as the sequence, how does the “soluble on expression in E. coli” value read?
A: soluble

Q: Which “soluble on expression in E. coli” value does the source give for “GQSRERLVKWLQDAYAMEKEAETMMAAMASRIEHYPELKRRIEQHVEETQQQSAGVQRCLELLNGSIPTAKGMLSSVLASMHAAGNSMMTDEVTKGVGISYAFEHLEIASYRALVVAARSAGEQEVAQICEDILQQEIEMAEWLIEHQEAIVVAFLEREQLEGVGS” here?
A: soluble

Q: With “GREPADMVLKGGRFFDLVTGELVASDIAICGDTVVGTCGDYKGRHEIDISGKIVVPGFIDTHLHIESSLVTPHEFDRCVLPYGVTTAICDPHEIANVLGAEGLQFFLDSAMETIMDIRVQLSSCVPATHLETSGADLPIEKLLPFRNHPKVIGLAEFMNFPGVIHKDPVCMAKLEAFQGQHIDGHAPLLSGAALNGYLAAGIRTEHECTSAAEALEKIRKGMHILVREGSVSKDLHALMPIITERLSPYLALCTDDRNPLDIAEQGHLDYMIRTAIASGVEPLAIYRAASISAAKAFGLRDRGLVAPGWRADLVVIDTLQNCKASMVLSGGRLVDDALFATRKPVAPVGLDSVKARPVLASHFGVPVTEGETPVMGVLPGKIITEHRRYKLPTDGNQTTVDLENDIIKVAVIERHGKNGNHANGFVQGFGLKKGAIASTVGHDSHNICVVGVSEDDMALAANRLGDIKGGFVVVEDGRVTGEIALPVAGLMSLEPYETVRDTLHTLRKAAYALGTTLEEPFLQVAFLPLPVIPHLKISDMGMVDVDRFA” as the sequence, how does the “soluble on expression in E. coli” value read?
A: not soluble

Q: With “GSESKCPEELANYCDMLLRKTPLSKKLTSEEIEAKLKEVLKKLKYVQNKDVFMRYHKAHLTRRLILDISADSEIEENMVEWLREVGMPADYVNKLARMFQDIKVSEDLNQAFKEMHKNNKLALPADSVNIKILNAGAWSRSSEKVFVSLPTELEDLIPEVEEFYKKNHSGRKLHWHHLMSNGIITFKNEVGQYDLEVTTFQLAVLFAWNQRPREKISFENLKLATELPDAELRRTLWSLVAFPKLKRQVLLYEPQVNSPKDFTEGTLFSVNQEFSLIKNAKVQKRGKINLIGRLQLTTERMREEENEGIVQLRILRTQEAIIQIMKMRKKISNAQLQTELVEILKNMFLPQKKMIKEQIEWLIEHKYIRRDESDINTFIYMA” as the sequence, how does the “soluble on expression in E. coli” value read?
A: soluble

Q: For “GSFTMSYCRQEGKDRIIFVTKEDHETPSSAELVADDPNDPYEEHGLILPNGNINWNCPCLGGMASGPCGEQFKSAFSCFHYSTEEIKGSDCVDQFRAMQECMQKYPDLYPQEDEDEEEEREKKPAEQAEETAPIEATATKEEEGSS”, which “soluble on expression in E. coli” value is on record?
A: soluble

Q: With “GSGPTYCWNEANNPGGPNRCSNNKQCDGARTCSSSGFCQGTSRKPDPGPKGPTYCWDEAKNPGGPNRCSNSKQCDGARTCSSSGFCQGTAGHAAA” as the sequence, how does the “soluble on expression in E. coli” value read?
A: soluble

Q: Which “soluble on expression in E. coli” value does the source give for “GSHHHHHHGSHMDEKLLKTIAESKYLVALTGAGVSAESGIPTFRGKDGLWNRYRPEELANPQAFAKDPEKVWKWYAWRMEKVFNAQPNKAHQAFAELERLGVLKCLITQNVDDLHERAGSRNVIHLHGSLRVVRCTSCNNSFEVESAPKIPPLPKCDKCGSLLRPGVVWFGEMLPPDVLDRAMREVERADVIIVAGTSAVVQPAASLPLIVKQRGGAIIEINPDETPLTPIADYSLRGKAGEVMDELVRHVRKALS” here?
A: soluble

Q: For “GSHMAAQSGNDAAEVALYERLLQLRVLPGASDVHDVRFVFGDDSRCWIEVAMHGDHVIGNSHPALDPKSRATLEHVLTVQGDLAAFLVVARDMLLASL”, which “soluble on expression in E. coli” value is on record?
A: soluble

Q: With “GSHMASFNGVSEAELLTKTLPDILTFNLDIVIIGINPGLMAAYKGHHYPGPGNHFWKCLFMSGLSEVQLNHMDDHTLPGKYGIGFTNMVERTTPGSKDLSSKEFREGGRILVQKLQKYQPRIAVFNGKCIYEIFSKEVFGVKVKNLEFGLQPHKIPDTETLCYVMPSSSARCAQFPRAQDKVHYYIKLKDLRDQLKGIERNMDV” as the sequence, how does the “soluble on expression in E. coli” value read?
A: soluble

Q: For “GSHMLEDPLRVSPMIREFVQSIDDREWQTQLFALLQKQTYNQVEVDLFELMCKVLDQNLFSQVDWARNTVFFKDLKVDDQMKLLQHSWSDMLVLDHLHHRIHNGLPDETQLNNGQVFNLMSLGLLGVPQLGDYFNELQNKLQDLKFDMGDYVCMKFLILLNPSVRGIVNRKTVSEGHDNVQAALLDYTLTCYPSVNDKFRGLVNILPEIHAMAVRGEDHLYTKHCAGSAPTQTLLMEMLHAKR”, which “soluble on expression in E. coli” value is on record?
A: soluble

Q: For “GSHMSEWKARRFWASVGIHKEEGGWAVLLDERPLRTPGKQPLRLPTEALALAIAEEWQAVQEVIDPNAMPLTRSANSAIEKVAPQFDAVAAMLGDYGGTDLLSYRADAPEALVRAQAEGWDPLIDWAATELRAPLRITHGVIPVPQDPVVLLKLRAEVASLDPFGLTALHDLVTLPGSLILGLAVIRGRIDAPTAHALSRIDEEFQAERWGRDEEAEAQAASRLAAMRDSERFWHLTRG”, which “soluble on expression in E. coli” value is on record?
A: soluble

Q: Which “soluble on expression in E. coli” value does the source give for “GSHMSHLDNTMAIRLLPLPVRAQLCAHLDALDVWQQLATAVKLYPDQVEQISSQKQRGRSASNEFLNIWGGQYNHTVQTLFALFKKLKLHNAMRLIKDYVSEDLHKYI” here?
A: soluble

— the DeepSol protein solubility set
